From patent US20230287402A1 (University of Washington, published 2023)

Target: T1, Di13_B2L2B4, cyclic pseudo-dihedral B component (construct number 2 of Table 3)
T1 construct: also called cyclic B
Assay: negative stain TEM, unlabelled construct

B1: A component of design #13 (D3 homooligomer, designed from 1d2t) (designed binder)
chain: MGHHHHHHGGLALVATGNDTTTKPDLYYLKNSEAINSLALLPPPPAVGSIAFLNDQAMYEQGRLLRNTERGKLAAEDANLSSGGVANAFSGAFGSPITEKDAPALHKLLTNMIEDAGDLATRSAKDHYMRIRPFAFYGVSTCNTTEQDKLSKNGSYPSGHTSIGWATALVLAEINPQRQNEILKRGYELGQSRVICGYHWQSDVDAARVVGSAVVATLHTNPEFQAQLIKAKIEFKQHQKEL
notes: also called component A; dihedral A
B1: binds.
